In article PMC4019985, “Mitochondrial thiol oxidase Erv1: both shuttle cysteine residues are required for its function with distinct roles” (Biochemical Journal, 2014):
Changes are numbered by the printed parent chain. Numbers in names are those of the source. Where “and” joins values, the source holds several entries; their conditions need not be identical. Identical values can stand only once.

B1: Erv1^CXXS (Erv1C33S) (enzyme, S. cerevisiae, UniProt P27882 1-189, looked up)
chain: MKAIDKMTDNPPQEGLSGRKIIYDEDGKPCRSSNTLLDFQYVTGKISNGLKNLSSNGKLAGTGALTGEASELMPGSRTYRKVDPPDVEQLGRSSWTLLHSVAASYPAQPTDQQKGEMKQFLNIFSHIYPCNWCAKDFEKYIRENAPQVESREELGRWMCEAHNKVNKKLRKPKFDCNFWEKRWKDGWDE
notes: Erv1, S. cerevisiae, full length, second shuttle cysteine changed to serine
B2: Erv1 redox active-site disulfide double cysteine mutant (C130/C133S) (enzyme, S. cerevisiae, UniProt P27882 1-189, looked up)
chain: B1 chain with S33C, C130S, C133S
notes: Erv1, S. cerevisiae, full length, both active-site cysteines changed to serine; also called Erv1^CCSS
B3: Erv1 (essential for respiration and viability 1), wild-type (enzyme, S. cerevisiae, UniProt P27882 1-189, looked up)
chain: B1 chain with S33C
notes: Erv1, FAD-dependent thiol oxidase of the mitochondrial intermembrane space, S. cerevisiae, full length; Construct in pET24a(+) via Nde1/Xho1; also called WT Erv1; WT
B4: Mia40^SPC, core domain Mia40c (amino acids 284-403) with the first cysteine of the CPC motif changed to serine (domain or fragment, S. cerevisiae, UniProt P36046 284-403, looked up)
chain: AYNPDTGEINWDSPCLGGMAHGPCGEEFKSAFSCFVYSEAEPKGIDCVEKFQHMQDCFRKYPEHYAEQLKETSDDEEPQDKVKVNTIESAPNVSSAKENAAKKAEQSDVKKEPLNEESKP
notes: Mia40, S. cerevisiae, core domain Mia40c, residues 284-403 (~15 kDa); first cysteine of the CPC motif (Cys296) changed to serine; source: purified (glutathione-Sepharose 4B, thrombin cleavage, Superdex 75)
B5: Mia40^CPS, core domain Mia40c (amino acids 284-403) with the second cysteine of the CPC motif changed to serine (domain or fragment, S. cerevisiae, UniProt P36046 284-403, looked up)
chain: B4 chain with S13C, C15S
notes: Mia40, S. cerevisiae, core domain Mia40c, residues 284-403 (~15 kDa); second cysteine of the CPC motif (Cys298) changed to serine; source: purified (glutathione-Sepharose 4B, thrombin cleavage, Superdex 75)
B6: Erv1^SXXC (Erv1C30S) (enzyme, S. cerevisiae, UniProt P27882 1-189, looked up)
chain: B1 chain with C30S, S33C
notes: Erv1, S. cerevisiae, full length, first shuttle cysteine changed to serine; Found as a tetramer (peak 1, yellow) and a dimer (peak 2, black, charge-transfer complex)

Legend:
Cys33 = Cys33 (UniProt position 33, KPSRSCNTLLD); test: chemical modification (monobromobimane alkylation) with fluorescence detection; details: 25°C; I = 0.15 M (constant ionic strength buffers, 120 mM NaCl); 15 mM acetic acid, 15 mM Mes and 30 mM Tris (pH 3.5–9.0), or 30 mM Aces, 15.6 mM Tris and 15.6 mM ethanolamine (pH 5.7–10). Both contained 120 mM NaCl and 0.1 mM DTPA.; Folded, FAD-bound. The single shuttle cysteine is reduced (free thiol, confirmed by AMS modification), and the active-site cysteines are replaced by serine.
Cys30 = Cys30 (UniProt position 30, EDGKPCRSSNT); test: as above; details: 25°C; I = 0.15 M (constant ionic strength buffers, 120 mM NaCl); 15 mM acetic acid, 15 mM Mes and 30 mM Tris (pH 3.5–9.0), or 30 mM Aces, 15.6 mM Tris and 15.6 mM ethanolamine (pH 5.7–10). Both contained 120 mM NaCl and 0.1 mM DTPA.; Folded, FAD-bound. The single shuttle cysteine is reduced (free thiol, confirmed by AMS modification), and the active-site cysteines are replaced by serine.
[1] = biological target: the molecule itself; test: SEC; Superdex 75 in buffer A (50 mM Tris/HCl pH 7.4, 150 mM NaCl); elution position compared with the Erv1 tetramer
[2] = biological target: the molecule itself; test: non-reducing SDS/PAGE (intermolecular disulfide-bonded dimer); gel-filtration fractions of the purified proteins on Tris/Tricine SDS/PAGE (16% gel) under reducing and non-reducing conditions
Erv1^CXXS (Erv1C33S) = biological target: B1; test: mixed disulfide trapping, non-reducing SDS/PAGE and Western blot; single cysteine mutants pre-treated with 2 mM TCEP, exchanged to buffer A, incubated at 5 uM each for 20 min at room temperature (stopped with 2.5 mM AMS, or 1 mM DTT as reducing control), or 50 uM Mia40 and 5 uM Erv1 over 10 min (stopped with 20 mM IAM); detected with an antibody against Erv1; details: both partners purified
Erv1^SXXC (Erv1C30S) = biological target: B6; test: as above; details: both partners purified
[3] = biological target: the molecule itself; test: SEC-MALS; Superdex 200 10/30 in buffer A (150 mM NaCl, 50 mM Tris/HCl pH 7.4), in-line DAWN EOS photometer and Optilab rEX refractor; the two gel-filtration peaks of the protein

Mitochondrial FAD-linked sulfhydryl (thiol) oxidase Erv1, triple mutant Erv1^SCSS (C30S/C130S/C133S) (Saccharomyces cerevisiae; C30S;C130S;C133S)
pKa (Cys33): 8.41±0.06

Mitochondrial FAD-linked sulfhydryl (thiol) oxidase Erv1, triple mutant Erv1^CSSS (C33S/C130S/C133S) (Saccharomyces cerevisiae; C33S;C130S;C133S)
pKa (Cys30): 8.39±0.12

B1
stoichiometry N [1]: 4

B2
binding result [2]: binds

B3
binding result [2]: binds

B4
binding result (Erv1^CXXS (Erv1C33S)): binds
binding result (Erv1^SXXC (Erv1C30S)): binds

B5
binding result (Erv1^CXXS (Erv1C33S)): binds
binding result (Erv1^SXXC (Erv1C30S)): binds

B6
stoichiometry N [3]: 4 and 2
